Experimental data published in PMC5413349.

Target: human cytoplasmic dynein-1 complex (recombinant, SNAPf tag on the heavy chain) (human) (UniProt Q14204)

- mean duration of plus-end tracking events of dynein on growing microtubules with EB1 and dynactin after addition of LIS1: 14 s
B1: human full-length Lissencephaly-1 (LIS1), unlabelled (natural protein)
chain: MVLSQRQRDELNRAIADYLRSNGYEEAYSVFKKEAELDVNEELDKKYAGLLEKKWTSVIRLQKKVMELESKLNEAKEEFTSGGPLGQKRDPKEWIPRPPEKYALSGHRSPVTRVIFHPVFSVMVSASEDATIKVWDYETGDFERTLKGHTDSVQDISFDHSGKLLASCSADMTIKLWDFQGFECIRTMHGHDHNVSSVAIMPNGDHIVSASRDKTIKMWEVQTGYCVKTFTGHREWVRMVRPNQDGTLIASCSNDQTVRVWVVATKECKAELREHEHVVECISWAPESSYSSISEATGSETKKSGKPGPFLLSGSRDKTIKMWDVSTGMCLMTLVGHDNWVRGVLFHSGGKFILSCADDKTLRVWDYKNKRCMKTLNAHEHFVTSLDFHKTAPYVVTGSVDQTVKVWECR
